Test results published in paper PMC12406269 (2025).

What was measured:
[1] = target: T1, human ISG15 (C78S) (human, UniProt P05161 1-157, C78S); assay: BLI
[2] = target: T1, human ISG15 (C78S); assay: BLI; remark: listed apart in the source

T1 sequence (P05161 1-157 C78S): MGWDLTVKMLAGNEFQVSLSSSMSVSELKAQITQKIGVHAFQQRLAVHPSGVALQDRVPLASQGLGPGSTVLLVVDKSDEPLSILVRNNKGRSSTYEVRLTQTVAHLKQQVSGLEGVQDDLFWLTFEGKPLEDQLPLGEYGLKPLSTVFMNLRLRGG

| Binder | Kd [1] | koff [2] |
| --- | --- | --- |
| C-terminally biotin-tagged VHH_(ISG15-B) (VHH, biotin at the C-terminus (sortase reaction with GGG-Biotin replaces the C-terminal HA tag)) VHH: QVQLVETGGGLVEPGGSLRLSCTVSGINFSSQFMAWFRQGPGKQREWVAIDAGEENVGYLDLVEGRFTISRDTARNTLYLQMNSLKPEDTAVYYCNIFPVLPDSRWGQGTQVTVSS | 2.88 nM | 0.00388 s⁻¹ |
| C-terminally biotin-tagged VHH_(ISG15-A) (VHH, biotin at the C-terminus (sortase reaction with GGG-Biotin replaces the C-terminal HA tag)) VHH: QLQLVETGGGLVQAGGSLRLSCAASGRTFAGLSVKWFRQPPGAEREWVAHITSTGSSTHYADSVKGRFTISRDYDRNMVYLQMSSLKPEDTAVYYCHASTLWPEKHQDYWGQGIQVTVSS | 101 nM | 0.012 s⁻¹ |
